These results are taken from the supplement of paper PMC5998384.

In series [1] the test system is HeLa Kyoto. Description: thermal stability score vs G1/S (z-score of summed log2 fold changes over temperatures); higher = more thermally stable than in G1/S.
In series [2] the test system is HeLa Kyoto. Description: solubility change mitosis vs G1/S (difference of NP-40 vs SDS log2 ratios) (log2 ratio difference); higher = more soluble in mitosis.
Series [3] deals with HeLa Kyoto. Nature of the series: solubility in G1/S (NP-40 vs SDS abundance) (log2 ratio); higher = more soluble. The conditions noted are these: cell cycle stage: G1/S.
The subject of series [4] is HeLa Kyoto. Description: melting temperature (median over replicates), in situ; higher = more thermally stable.
Setting [5] is: cell cycle stage: early G1 (4.5 h after nocodazole release).
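Wherever melting temperature (median over replicates), in situ is given: HeLa Kyoto cells synchronized by double thymidine or nocodazole block, proteins quantified by TMT10plex mass spectrometry, three independent biological replicates.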
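Wherever solubility change mitosis vs G1/S (difference of NP-40 vs SDS log2 ratios) is given: synchronized HeLa Kyoto cells (double thymidine block for G1/S, nocodazole release for mitosis), protein amounts in NP-40 versus SDS lysates quantified by mass spectrometry, three biological replicates.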
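Wherever solubility in G1/S (NP-40 vs SDS abundance) is given: HeLa Kyoto cells arrested at G1/S by double thymidine block, proteins quantified by TMT10plex mass spectrometry in mild NP-40 versus SDS extracts, three biological replicates.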
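Wherever thermal stability score vs G1/S (z-score of summed log2 fold changes over temperatures) is given: synchronized HeLa Kyoto cells, proteins quantified by TMT10plex mass spectrometry, three biological replicates, mitosis taken 0.5 h after nocodazole release, G1/S directly after double thymidine block.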

For “MLPLSLLKTAQNHPMLVELKNGETYNGHLVSCDNWMNINLREVICTSRDGDKFWRMPECYIRGSTIKYLRIPDEIIDMVKEEVVAKGRGRGGLQQQKQQKGRGMGGAGRGVFGGRGRGGIPGTGRGQPEKKPGRQAGKQ [LSM4]”, the thermal stability score is -3.84 in series [1] (setting [5]) and -4.06 in series [1] (cell cycle stage: mitosis). In addition, the “solubility change mitosis (log2)” value in series [2] worked out at 0.187. For the same sequence, the “solubility in G1/S (log2)” value in series [3] is 0.0844. Besides, the figures for the melting temperature in series [4] (cell cycle stage: G1/S) and in series [4] (cell cycle stage: mitosis) were 58.1 °C and 54.6 °C, respectively.

On to “MAVVPASLSGQDVGSFAYLTIKDRIPQILTKVIDTLHRHKSEFFEKHGEEGVEAEKKAISLLSKLRNELQTDKPFIPLVEKFVDTDIWNQYLEYQQSLLNESDGKSRWFYSPWLLVECYMYRRIHEAIIQSPPIDYFDVFKESKEQNFYGSQESIIALCTHLQQLIRTIEDLDENQLKDEFFKLLQISLWGNKCDLSLSGGESSSQNTNVLNSLEDLKPFILLNDMEHLWSLLSNCKKTREKASATRVYIVLDNSGFELVTDLILADFLLSSELATEVHFYGKTIPWFVSDTTIHDFNWLIEQVKHSNHKWMSKCGADWEEYIKMGKWVYHNHIFWTLPHEYCAMPQVAPDLYAELQKAHLILFKGDLNYRKLTGDRKWEFSVPFHQALNGFHPAPLCTIRTLKAEIQVGLQPGQGEQLLASEPSWWTTGKYGIFQYDGPL [ARMT1]”, for which the thermal stability score was determined as 1.02 in series [1] (setting [5]) and 1.91 in series [1] (cell cycle stage: mitosis). Further, in series [2], the “solubility change mitosis (log2)” value is -0.15. For the same sequence, the “solubility in G1/S (log2)” value in series [3] turned out to be 0.0146. In addition, the figures for the melting temperature in series [4] (cell cycle stage: G1/S) and in series [4] (cell cycle stage: mitosis) were 49.6 °C and 49 °C, respectively.

“MAAVQVVGSWPSVQPREAPREAIPERGNGFRLLSARLCALRPDDSSSARTEIHLLFDQLISENYSEGSGVAPEDVSALLVQACRLVPLNQNHLVSKVSQLIHHLLNRLQVIVDEQHLDFLLAYTISAIHQCSSWTHREILQALAALVYCNGSKCQKYLPELLGNTGLLMKLSDLAQSDPEVRRAAVHCMANLCLSVPGQPYLEEPYQNVCFQAFLTILQSPKSSDMDDITFCMLLQNALKGIQSLLNGGRMKLTQTDELGALLAVLKKFMFHGLPGLNIEMPTVLYPTPLPQYDGRTPIKPQQSESSASRPTLNKKKKSKVKPKKIQQGEEEEKESSGEIEAAPVTGTGRVNLHEGNTWCPSSLGVQSLPLDGSGAAEKDGVSSSFSSSSWKRVSSSESDFSDAEGGMQSKMRSYQAKVRQGALVCFLSTIKSIEKKVLYGYWSAFIPDTPELGSPQSVSLMTLTLKDPSPKTRACALQVLSAILEGSKQFLSVAEDTSDHRRAFTPFSVMIACSIRELHRCLLLALVAESSSQTVTQIIKCLANLVSNAPYDRLKLSLLTKVWNQIKPYIRHKDVNVRVSSLTLLGAIVSTHAPLPEVQLLLQQPCSSGLGNSNSATPHLSPPDWWKKAPAGPSLEETSVSSPKGSSEPCWLIRLCISIVVLPKEDSCSGSDAGSAAGSTYEPSPMRLEALQVLTLLARGYFSMTQAYLMELGEVICKCMGEADPSIQLHGAKLLEELGTGLIQQYKPDSTAAPDQRAPVFLVVMFWTMMLNGPLPRALQNSEHPTLQASACDALSSILPEAFSNLPNDRQMLCITVLLGLNDSKNRLVKAATSRALGVYVLFPCLRQDVIFVADAANAILMSLEDKSLNVRAKAAWSLGNLTDTLIVNMETPDPSFQEEFSGLLLLKMLRSAIEASKDKDKVKSNAVRALGNLLHFLQPSHIEKPTFAEIIEESIQALISTVLTEAAMKVRWNACYAMGNVFKNPALPLGTAPWTSQAYNALTSVVTSCKNFKVRIRSAAALSVPGKREQYGSVDQYARIWNALVTALQKSEDTIDFLEFKYCVSLRTQICQALIHLLSLASASDLPCMKETLELSGNMVQSYILQFLKSGAEGDDTGAPHSPQERDQMVRMALKHMGSIQAPTGDTARRAIMGFLEEILAVCFDSSGSQGALPGLTNQ [HEATR6]”: the results for the thermal stability score in series [1] (setting [5]) and in series [1] (cell cycle stage: mitosis) were -0.697 and 0.141, respectively. For the same sequence, the “solubility change mitosis (log2)” value in series [2] was -0.216. The “solubility in G1/S (log2)” value in series [3] amounted to 0.0502. Further, the melting temperature in series [4] (cell cycle stage: G1/S) was 50.5 °C; in series [4] (cell cycle stage: mitosis), 50.1 °C.

As for “MNKHQKPVLTGQRFKTRKRDEKEKFEPTVFRDTLVQGLNEAGDDLEAVAKFLDSTGSRLDYRRYADTLFDILVAGSMLAPGGTRIDDGDKTKMTNHCVFSANEDHETIRNYAQVFNKLIRRYKYLEKAFEDEMKKLLLFLKAFSETEQTKLAMLSGILLGNGTLPATILTSLFTDSLVKEGIAASFAVKLFKAWMAEKDANSVTSSLRKANLDKRLLELFPVNRQSVDHFAKYFTDAGLKELSDFLRVQQSLGTRKELQKELQERLSQECPIKEVVLYVKEEMKRNDLPETAVIGLLWTCIMNAVEWNKKEELVAEQALKHLKQYAPLLAVFSSQGQSELILLQKVQEYCYDNIHFMKAFQKIVVLFYKADVLSEEAILKWYKEAHVAKGKSVFLDQMKKFVEWLQNAEEESESEGEEN [BZW2]”, the values for the thermal stability score in series [1] (setting [5]) and in series [1] (cell cycle stage: mitosis) were 2.74 and 3.19, respectively. In series [2], the “solubility change mitosis (log2)” value is -0.11. In series [3], the “solubility in G1/S (log2)” value turned out to be 0.446. In addition, the values for the melting temperature in series [4] (cell cycle stage: G1/S) and in series [4] (cell cycle stage: mitosis) were 51.3 °C and 50.1 °C, respectively.

Turning to “MAAEAADLGLGAAVPVELRRERRMVCVEYPGVVRDVAKMLPTLGGEEGVSRIYADPTKRLELYFRPKDPYCHPVCANRFSTSSLLLRIRKRTRRQKGVLGTEAHSEVTFDMEILGIISTIYKFQGMSDFQYLAVHTEAGGKHTSMYDKVLMLRPEKEAFFHQELPLYIPPPIFSRLDAPVDYFYRPETQHREGYNNPPISGENLIGLSRARRPHNAIFVNFEDEEVPKQPLEAAAQTWRRVCTNPVDRKVEEELRKLFDIRPIWSRNAVKANISVHPDKLKVLLPFIAYYMITGPWRSLWIRFGYDPRKNPDAKIYQVLDFRIRCGMKHGYAPSDLPVKAKRSTYNYSLPITVKKTSSQLVTMHDLKQGLGPSGTSGARKPASSKYKLKDSVYIFREGALPPYRQMFYQLCDLNVEELQKIIHRNDGAENSCTERDGWCLPKTSDELRDTMSLMIRQTIRSKRPALFSSSAKADGGKEQLTYESGEDEEDEEEEEEEEEDFKPSDGSENEMETEILDYV [GTF3C5]”, the thermal stability score is 2.34 in series [1] (setting [5]) and 4.79 in series [1] (cell cycle stage: mitosis). Moreover, the “solubility change mitosis (log2)” value in series [2] was -0.0211. The “solubility in G1/S (log2)” value in series [3] was -0.0747. Besides, the melting temperature in series [4] (cell cycle stage: G1/S) came out at 47.8 °C; in series [4] (cell cycle stage: mitosis), 49.4 °C.

For the sequence “MANMQGLVERLERAVSRLESLSAESHRPPGNCGEVNGVIAGVAPSVEAFDKLMDSMVAEFLKNSRILAGDVETHAEMVHSAFQAQRAFLLMASQYQQPHENDVAALLKPISEKIQEIQTFRERNRGSNMFNHLSAVSESIPALGWIAVSPKPGPYVKEMNDAATFYTNRVLKDYKHSDLRHVDWVKSYLNIWSELQAYIKEHHTTGLTWSKTGPVASTVSAFSVLSSGPGLPPPPPPLPPPGPPPLFENEGKKEESSPSRSALFAQLNQGEAITKGLRHVTDDQKTYKNPSLRAQGGQTQSPTKSHTPSPTSPKSYPSQKHAPVLELEGKKWRVEYQEDRNDLVISETELKQVAYIFKCEKSTIQIKGKVNSIIIDNCKKLGLVFDNVVGIVEVINSQDIQIQVMGRVPTISINKTEGCHIYLSEDALDCEIVSAKSSEMNILIPQDGDYREFPIPEQFKTAWDGSKLITEPAEIMA [CAP2]”, the thermal stability score was -1.54 in series [1] (setting [5]) and -2.12 in series [1] (cell cycle stage: mitosis). For the same sequence, the “solubility change mitosis (log2)” value in series [2] was -0.179. Moreover, the “solubility in G1/S (log2)” value in series [3] stood at 0.136. The melting temperature in series [4] (cell cycle stage: G1/S) was 51.3 °C; in series [4] (cell cycle stage: mitosis), 50.3 °C.
